Results from the supplement of paper PMC9170038.

Test system: MS2 coat protein
Assay: apparent KD of MS2 coat protein; designed switch direction (-1 OFF switch, 1 ON switch): 1; higher = weaker reporter binding
Procedure, shortened: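 RNA switches sharing common flanks were transcribed by stalled E. coli RNA polymerase on Illumina chips. A doubling series of SNAP-549-labelled MS2 coat protein, from 0.7 or 1.5 nM to 3 µM, was applied in Tris-HCl pH 7.5 buffer with KCl, MgCl2, BSA, DTT, tRNA and Tween-20. Each step lasted 0.8–1.5 h at the bottom of the series and 10–20 min at the top. Normalised cluster fluorescence was curve-fitted, giving apparent KD as the per-design median over clusters.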

[1] = input ligand: microRNA oligo, concentration not stated
[2] = Eterna round: R95, input ligand: FMN 200 uM
[3] = Eterna round: R95, input ligand: microRNA oligo, concentration not stated
[4] = Eterna round: R95, input ligand: none

GCUAGAAAUAAAGCCAACAUGAGGAUCACCCAUGUAUGUUGGUAGGAUAUCGUUUGCAAAGCAAACGAGAAGGGCCAAACUAGC [Mat - Same State NG 3 - JL Mod - D20] (Eterna round: R96, puzzle: Same State NG 3)
apparent KD of MS2 coat protein (input ligand: FMN 200 uM): 86.5 nM | apparent KD of MS2 coat protein [1]: 104 nM | apparent KD of MS2 coat protein (input ligand: none): 137 nM

GCUCGAUGAGCGUUUUACAUGAGGAUCACCCAUGUUCGUGGGCAGGAUAUUUACGUGCGGAGUGUAGAGAAGGGCCCAUCGAGC [SameState NG3 #68] (Eterna round: R96, puzzle: Same State NG 3)
apparent KD of MS2 coat protein (input ligand: FMN 200 uM): 71.3 nM | apparent KD of MS2 coat protein [1]: 391 nM | apparent KD of MS2 coat protein (input ligand: none): 674 nM

CGUAGGUGGCUGGAGGAUAUUCGAGUGGUAACAUGAGGAUCACCCAUGUGUCGCGCGGUACAUGAGGAGAAGGCUAGCGGCCUGC (puzzle: Same State 2)
apparent KD of MS2 coat protein [2]: 20.8 nM | apparent KD of MS2 coat protein [3]: 118 nM | apparent KD of MS2 coat protein [4]: 250 nM

GCCAUCGAGUGAGGAUAUGGCACCGAAACGGUGCCAGAAGGCAUGUCAAUUGACAUGAGGAUCACCCAUGUAUUAUCGAUGGCA [Mat - Same State NG 1 - JL mod - D87] (Eterna round: R96, puzzle: Same State NG 1)
apparent KD of MS2 coat protein (input ligand: FMN 200 uM): 154 nM | apparent KD of MS2 coat protein [1]: 726 nM | apparent KD of MS2 coat protein (input ligand: none): 1690 nM

AAAAAACAUGAGGAUCACCCAUGUGAAAAUAUGGGAGGAUAUACAAACACGAAAGUGAAAGUAGAAGGCCUAAAAA [SS! MT 16] (Eterna round: R96, puzzle: Same State 1)
apparent KD of MS2 coat protein (input ligand: FMN 200 uM): 17.2 nM | apparent KD of MS2 coat protein [1]: 95.4 nM | apparent KD of MS2 coat protein (input ligand: none): 127 nM

AGCUGUGGAAAACUAUAGCAAAAGUAUGUACAUGAGGAUCACCCAUGUCAUGUACAAGCUUUUUGCUCGUCUUAAAA [ak 5 mod of one Eli's designs.] (puzzle: Sensor for hsa-mir-208a)
apparent KD of MS2 coat protein [2]: 42.4 nM | apparent KD of MS2 coat protein [3]: 18.7 nM | apparent KD of MS2 coat protein [4]: 90.4 nM

GGAGCCGGCCUAGGAUAUUUCAUAAAAUUACAUGAGGAUCACCCAUGUAGGCCAGAAGGCCUUGGGAAGAAGGAGGUCGGCUCC [Loop Effect - U28,U29] (Eterna round: R96, puzzle: Same State NG 2)
apparent KD of MS2 coat protein (input ligand: FMN 200 uM): 12.9 nM | apparent KD of MS2 coat protein [1]: 17.5 nM | apparent KD of MS2 coat protein (input ligand: none): 28.2 nM

ACAAGCUUUUUGCUCGUCUUCAUGUAAUAACAUGAGGAUCACCCAUGUAACGUUAAAAGUCUCUCGAUAAUAGCUCA [Meechl hsa-mir-208a 1] (puzzle: Sensor for hsa-mir-208a)
apparent KD of MS2 coat protein [2]: 132 nM | apparent KD of MS2 coat protein [3]: 33.6 nM | apparent KD of MS2 coat protein [4]: 348 nM

AGCUAUUAAUCAGGAUAUGGUCACAUGAGGAUCACCCAUGUGUAGAUGAUAAAAUGUGGUCAAGACUAGAAGGGAUUGCUAACA [SameState NG2 #62] (Eterna round: R96, puzzle: Same State NG 2)
apparent KD of MS2 coat protein (input ligand: FMN 200 uM): 125 nM | apparent KD of MS2 coat protein [1]: 49.3 nM | apparent KD of MS2 coat protein (input ligand: none): 95.9 nM

GCUCGAAUCAAAACCAACAUGAGGAUCACCCAUGUAUGUUGGUAGGAUAUCGUUUGCUUUGCAAACGAGAAGGGCCAAACGAGC [SameState NG3 #3] (Eterna round: R96, puzzle: Same State NG 3)
apparent KD of MS2 coat protein (input ligand: FMN 200 uM): 69.2 nM | apparent KD of MS2 coat protein [1]: 121 nM | apparent KD of MS2 coat protein (input ligand: none): 127 nM

ACAAGACAGGGAGGAUAUAGCUGUUCAUCAAAGUUAGAAGGCUCGUACACAUGAGGAUCACCCAUGUUGUCGGCAGUCGACUGA [Eternabot solution 42] (Eterna round: R96, puzzle: Same State NG 1)
apparent KD of MS2 coat protein (input ligand: FMN 200 uM): 7.44 nM | apparent KD of MS2 coat protein [1]: 9.67 nM | apparent KD of MS2 coat protein (input ligand: none): 12.2 nM

UUACUCAUGUAAGGAUAUGCAGCCGUUUCGGCUGCAGAAGGUACUAUAAUACAUGAGGAUCACCCAUGUCUCUAUUAUUUAGUU [JL SSNG1 1.43] (Eterna round: R96, puzzle: Same State NG 1)
apparent KD of MS2 coat protein (input ligand: FMN 200 uM): 151 nM | apparent KD of MS2 coat protein [1]: 39.6 nM | apparent KD of MS2 coat protein (input ligand: none): 52.7 nM

GGUGGGUUACUACCCACACAUGAGGAUCACCCAUGUAUUGGGAAGGAUAUGGUGCCUGUGUGGUACCAGAAGGUCGUGAAGGUG [SS-NG3-LRO19] (Eterna round: R96, puzzle: Same State NG 3)
apparent KD of MS2 coat protein (input ligand: FMN 200 uM): 580 nM | apparent KD of MS2 coat protein [1]: 312 nM | apparent KD of MS2 coat protein (input ligand: none): 3470 nM

GGCCUGUGUCAAGGAUAUGCUACCGUUUCGGUAGCAGAAGGUGAUCACAUGAGGAUCACCCAUGUUUACGCGAACACGCGCGCC (Eterna round: R96, puzzle: Same State NG 1)
apparent KD of MS2 coat protein (input ligand: FMN 200 uM): 193 nM | apparent KD of MS2 coat protein [1]: 70.6 nM | apparent KD of MS2 coat protein (input ligand: none): 79.6 nM

UGUUGUAUUACAGGAUAUCUAUUAUUUUGAUUUAGAGAAGGGUAUUCACAUGAGGAUCACCCAUGUAUAUACGAGGAAGUUGUG [JMF's solution 22] (Eterna round: R96, puzzle: Same State NG 1)
apparent KD of MS2 coat protein [1]: 34.4 nM

GACUAUCUAUCUCAGGAUAUCAUGUCAAAGACAUGAGGAUCACCCAUGUACCAGGAAACUGGUUAUGAGAAGGGAGAUAGAUAGA [Mat - Same State 2 - Mod - D44] (puzzle: Same State 2)
apparent KD of MS2 coat protein [2]: 130 nM | apparent KD of MS2 coat protein [3]: 58.1 nM | apparent KD of MS2 coat protein [4]: 991 nM

UGUUAGUAGACAGGAUAUUGAAUGUUAAGUAUUAACAUGAGGAUCACCCAUGUAUUAGAUUGGUACAAGAAGGGUCAAGUAAGU [JR_SSNG2_Sub011] (Eterna round: R96, puzzle: Same State NG 2)
apparent KD of MS2 coat protein (input ligand: FMN 200 uM): 380 nM | apparent KD of MS2 coat protein [1]: 540 nM | apparent KD of MS2 coat protein (input ligand: none): 247 nM

GCUCGAUGAGCGAUUUACAUGAGGAUCACCCAUGUACGUGGGCAGGAUAUUUACGUGCUUUGUGUAGAGAAGGGCCCAUCGAGC [SameState NG3 #72] (Eterna round: R96, puzzle: Same State NG 3)
apparent KD of MS2 coat protein (input ligand: FMN 200 uM): 107 nM | apparent KD of MS2 coat protein [1]: 309 nM | apparent KD of MS2 coat protein (input ligand: none): 546 nM

AAAAUAAAUGCGAAAAUUAACCGCAACUGACAUGAGGAUCACCCAUGUGCUUCAAGCUCAGGCAUCUCUUAUCGUCA [Maares] (Eterna round: R96, puzzle: Sensor for hsa-mir-208a)
apparent KD of MS2 coat protein (input ligand: FMN 200 uM): 112 nM | apparent KD of MS2 coat protein [1]: 67.9 nM | apparent KD of MS2 coat protein (input ligand: none): 105 nM

GCCGCGUUUCGCGCCUACAUGAGGAUCACCCAUGUUUGUUGGCAGGAUAUCGUCCGCUCUGCGGGCGAGAAGGGCUGUUGUGGU [salish99_SSNG3_R04_025] (Eterna round: R96, puzzle: Same State NG 3)
apparent KD of MS2 coat protein (input ligand: FMN 200 uM): 38.4 nM | apparent KD of MS2 coat protein [1]: 18 nM | apparent KD of MS2 coat protein (input ligand: none): 25.4 nM

CUUUUUAAUGCAGGAUAUGAUCAACAUGAGGAUCACCCAUGUGGUGUUGUGAGUAAGGAGAGUGAUCAGAAGGGCAUCUUUUCA [SS-NG2-LRO04] (Eterna round: R96, puzzle: Same State NG 2)
apparent KD of MS2 coat protein (input ligand: FMN 200 uM): 737 nM | apparent KD of MS2 coat protein [1]: 415 nM | apparent KD of MS2 coat protein (input ligand: none): 435 nM

AAACACAUGAGGAUCACCCAUGUAGCGCCAUUAAAGCGCACAUAGGAUAUCCGGUCCUAAAGACCGGAGAAGGGUGAAAGAAAA [Zara] (Eterna round: R96, puzzle: Same State NG 3)
apparent KD of MS2 coat protein (input ligand: FMN 200 uM): 54.8 nM | apparent KD of MS2 coat protein [1]: 76.2 nM | apparent KD of MS2 coat protein (input ligand: none): 121 nM

GGUCGGACUCACAUGAGGAUCACCCAUGUUCCGGAAACGGGAUAGGAUAUCUGUCCGAAAAGGUCAGAGAAGGGUCUACCGACC [Fiskers NG3ss - 55] (Eterna round: R96, puzzle: Same State NG 3)
apparent KD of MS2 coat protein (input ligand: FMN 200 uM): 1050 nM | apparent KD of MS2 coat protein [1]: 236 nM | apparent KD of MS2 coat protein (input ligand: none): 519 nM

CUGAGCAAUCGAGGAUAUCACGUCGUUUAGACGUGAGAAGGCGAUCAUAACAUGAGGAUCACCCAUGUAUUACAUGAAGCUCAG [SSNG1/4-A3] (Eterna round: R96, puzzle: Same State NG 1)
apparent KD of MS2 coat protein (input ligand: FMN 200 uM): 13.6 nM | apparent KD of MS2 coat protein [1]: 10.1 nM | apparent KD of MS2 coat protein (input ligand: none): 13.3 nM

CCCUGAGGUAGCCCACAGGGACAUGAGGAUCACCCAUGUACACAGGAUAUCGAGGGCUCCGCCUUCGAGAAGGGUGAUCAAACU [Geditedi] (Eterna round: R96, puzzle: Same State NG 3)
apparent KD of MS2 coat protein (input ligand: FMN 200 uM): 148 nM | apparent KD of MS2 coat protein [1]: 18.2 nM | apparent KD of MS2 coat protein (input ligand: none): 53.4 nM

AUUAAACAUGAGGAUCACCCAUGUCAACAAUGUCGAGGAUAUGGGCAAAUAAAAUAAGAACCAGAAGGCGAAUAAU [salish99_ss1_r3_076] (puzzle: Same State 1)
apparent KD of MS2 coat protein [2]: 39.9 nM | apparent KD of MS2 coat protein [3]: 426 nM | apparent KD of MS2 coat protein [4]: 303 nM

GUAAUACAUGAGGAUCACCCAUGUCAAUGUAGUCGAGGAUAUGGGUAGCUAUGAGGCUUACUAGAAGGCGACGAGC [Same State 1 - Mod of Vinnie Teenbexe v.5] (Eterna round: R96, puzzle: Same State 1)
apparent KD of MS2 coat protein (input ligand: FMN 200 uM): 46.5 nM | apparent KD of MS2 coat protein [1]: 208 nM | apparent KD of MS2 coat protein (input ligand: none): 249 nM

UGUUAUUAGACAGGAUAUUGAAUGUUAAGUAUUAACAUGAGGAUCACCCAUGUAUUUCAUUCGUACAAGAAGGGUCAUGUUCCU [JR_SSNG2_Sub017] (Eterna round: R96, puzzle: Same State NG 2)
apparent KD of MS2 coat protein [1]: 162 nM

GAGCCAGUCCGAGGAUAUUCAUAUUAACAUGAGGAUCACCCAUGUAGGCUCAGAAAGGAGCCUUGGGAGAAGGCGGACUGGCUC [Xeonanisa<<2] (Eterna round: R96, puzzle: Same State NG 2)
apparent KD of MS2 coat protein (input ligand: FMN 200 uM): 14.9 nM | apparent KD of MS2 coat protein [1]: 114 nM | apparent KD of MS2 coat protein (input ligand: none): 251 nM

GAUAAACAUGAGGAUCACCCAUGUGUGAAUAUGGGAGGAUAUACGUGGACCGUAGUCCGCGUAGAAGGCCUAAUUG [Mat - Same State 1 - Mod of JL - D20] (puzzle: Same State 1)
apparent KD of MS2 coat protein [3]: 166 nM

GCCCAUAGUAUAUGGGUACAAGCUUUUUGACAUGAGGAUCACCCAUGUACUCGUCUUAUGUGCAGUCCGUAGACUGC [JL-shm-2.18 Brourd mod] (puzzle: Sensor for hsa-mir-208a)
apparent KD of MS2 coat protein [2]: 61.9 nM | apparent KD of MS2 coat protein [3]: 15.3 nM | apparent KD of MS2 coat protein [4]: 66.6 nM
